The Human Domainome abundance scans (Beltran et al. 2025)

B1: POU domain, class 3, transcription factor 1, residues 247 to 324; numbered along this chain, Q03052 (parent)
chain: EDAPSSDDLEQFAKQFKQRRIKLGFTQADVGLALGTLYGNVFSQTTICRFEALQLSFKNMCKLKPLLNKWLEETDSSS

Variants of: B1
Assay: abundance fitness (aPCA) (normalised: wild type 0, dead -1); higher = more abundant; growth selection in yeast, the domain comes from the species named
Settings: Homo sapiens

Abundance fitness: each site, then its substitutions
D8: K -0.397; L -0.491; N -0.294; T -0.454; Y -0.826; Q -0.25; R -0.179; V -0.217; M 0.014; S -0.415
R20: Q -0.733; K -1.11; T -0.815; M -0.915; E -0.845; A -0.653; D -0.645; P -0.744; S -0.813; H -0.508; G -0.896; L -0.637; W -0.973; F -0.353; I -0.971; V -0.636
A28: P -0.758; M -0.149; C -0.239; S -0.237; W -0.371; R 0.069; Q -0.225; I -0.608; D -0.317; Y -0.213; N -0.285; L -0.405; T -0.037; V -0.495; E -0.008; K -0.111; H -0.24; G -0.083
K22: D 0.038; V -0.428; F -0.32; W -0.537; R -0.035; C -0.347; N 0.126; I -0.743; G -0.349; A 0.058; H 0.068; Y 0.071; T -0.106; L -0.128; P -1.04
I21: M -0.236; F -0.827; E 0.005; K -0.349; Q -0.178; A -0.391; P -1.18; C -0.521; G -0.689; D -0.527; L -0.184; R -0.338; H -0.64; W -0.544; Y 0.147
F25: M -0.276; I -0.404; C -0.217; K -0.095; S -0.505; W -0.536; Q -0.511; Y 0.112; L -0.12; G -0.859; D -0.811; R -0.342; N -0.531; V -0.31; P -0.965
T26: H -0.15; L -0.699; Q -0.192; M -0.559; W -0.998; G -0.456; D -0.86; P -0.919; S -0.093; K -0.746; A -0.497; N -0.436; E -0.298; I -0.951; V -0.724
Q27: V -0.171; M -0.288; S -0.369; F -0.325; W -0.209; R -0.49; K -0.257; H 0.217; T -0.062; G -0.595; L -0.356; P -0.053; I 0.045; A -0.051; C 0.069; E 0.03; D -0.836
R19: W -0.484; V -0.586; I -0.212; N -0.071; E -0.36; K 0.259; Q -0.218; T -0.04; M 0.023; G -0.495; L -0.613; H -0.456; P -0.79; S -0.232
F16: A -0.779; M -0.612; P -0.789; E -0.585; Q -0.541; R -0.621; K -0.61; T -0.429; G -0.572; W -0.736; N -0.713; L -0.633; D -0.83; V -0.515; I -0.532
Q11: T 0.036; S -0.002; H 0.121; K 0.057; N 0.001; A -0.087; F -0.093; M -0.213; E -0.002; D 0.07; Y -0.269; G -0.272; R -0.149; I 0.134; W -0.707; V -0.032; C -0.266; P -0.299
K17: R 0.007; C -0.868; E -0.8; M -0.269; A -0.178; P -0.667; H -0.066; T -0.001; I 0.048; D -0.893; S -0.354; Q 0.035; W -0.879
A13: G -0.828; M -0.383; C 0.113; T -0.691; I -0.43; K -0.402; V -0.047; W -0.903; E -0.416; F -0.972; D -1.07; Y -0.505; S -0.53
L9: A -0.532; S -0.833; M -0.084; Q -0.355; K -0.399; H -0.645; R -0.678; E -0.54; G -0.651; C -0.606; V -0.095; I -0.398; F -0.098; D -0.678; P -0.68; T -0.268; W -0.365
L23: M 0.124; E -0.47; W -0.224; C -0.629; A -0.226; I -1; G -0.56; S -0.59; R -0.313; D -0.301; V -0.686; T -0.647; F -0.219; Q -0.31
Q18: F -0.304; M -0.472; Y -0.824; T -0.034; L -0.25; H 0.031; A 0.074; N -0.276; V -0.316; P -1.16; C -0.428; S -0.027; W -0.245; E 0.028; D -0.259; R -0.204; K 0.138
G24: Q -0.796; P -0.73; M -0.78; K -0.423; N -0.587; D -0.7; V -1.01; W -0.806; I -1.02; L -0.726; T -0.805; S -0.454; A -0.739; R -0.75
D29: S -0.28; L -0.547; T -0.512; A -0.134; M -0.654; P -0.614; Q 0.184; F -0.835; G -0.241; N -0.729; C -0.592; K -0.057; H -0.213; R -0.316
E10: D -0.136; S -0.433; I -0.456; F -0.073; Q -0.144; H 0.243; Y -0.244; W -0.107; M -0.037; C -0.118; G -0.361; T -0.121; A -0.178; P -0.432; N -0.024; R -0.107; K -0.301
Q15: P -0.745; D 0; S -0.014; C -0.342; V -0.078; T -0.112; W -0.288; M 0.124; G -0.18; I 0.2; R -0.047; N 0.301; F -0.122; K -0.118; L -0.184; A -0.067; E -0.092; H -0.075
F12: T -1.16; C -0.881; P -0.492; N -0.192; G -1.11; R -0.62; E -0.738; V -0.55; W -0.362; I -0.553; Q -0.844; A -0.391; L -0.547; S -0.544
K14: S -0.492; R -0.195; N -0.211; T -0.03; I -0.19; H 0.468; W -0.419; D -0.78; C -0.27; Q 0.048; L -0.159; P -0.573; E -0.053; F -0.386; Y -0.233
